Read-outs that look alike come from different tables or passages of the source.
B1: NEFL (protein, UniProt P07196 2-543, looked up)
Neurofilament light …: SSFSYEPYYSTSYKRRYVETPRVHISSVRSGYSTARSAYSSYSAPVSSSLSVRRSYSSSSGSLMPSLENLDLSQVAAISNDLKSIRTQEKAQLQDLNDRFASFIERVHELEQQNKVLEAELLVLRQKHSEPSRFRALYEQEIRDLRLAAEDATNEKQALQGEREGLEETLRNLQARYEEEVLSREDAEGRLMEARKGADEAALARAELEKRIDSLMDEISFLKKVHEEEIAELQAQIQYAQISVEMDVTKPDLSAALKDIRAQYEKLAAKNMQNAEEWFKSRFTVLTESAAKNTDAVRAAKDEVSESRRLLKAKTLEIEACRGMNEALEKQLQELEDKQNADISAMQDTINKLENELRTTKSEMARYLKEYQDLLNVKMALDIEIAAYRKLLEGEETRLSFTSVGSITSGYSQSSQVFGRSAYGGLQTSSYLMSTRSFPSYYTSHVQEEQIEVEETIEAAKAEEAKDEPPSEGEAEEEEKDKEEAEEEEAAEEEEAAKEESEEAKEEEEGGEGEEGEETKEAEEEEKKVEGAGEEQAAKKKD
B2: NAP1L1 (protein, UniProt P55209 2-388, looked up)
Nucleosome assembly protein …: ADIDNKEQSELDQDLDDVEEVEEEETGEETKLKARQLTVQMMQNPQILAALQERLDGLVETPTGYIESLPRVVKRRVNALKNLQVKCAQIEAKFYEEVHDLERKYAVLYQPLFDKRFEIINAIYEPTEEECEWKPDEEDEISEELKEKAKIEDEKKDEEKEDPKGIPEFWLTVFKNVDLLSDMVQEHDEPILKHLKDIKVKFSDAGQPMSFVLEFHFEPNEYFTNEVLTKTYRMRSEPDDSDPFSFDGPEIMGCTGCQIDWKKGKNVTLKTIKKKQKHKGRGTVRTVTKTVSNDSFFNFFAPPEVPESGDLDDDAEAILAADFEIGHFLRERIIPRSVLYFTGEAIEDDDDDYDEEGEEADEEGEEEGDEENDPDYDPKKDQNPAEC
B3: MORC4 (protein, UniProt Q8TE76 1-937, looked up)
MORC family CW-type zinc …: MLLYRGAPAGPGAPGCGLARPGGGPQAFGIRLSTMSPRYLQSNSSSHTRPFSAIAELLDNAVDPDVSARTVFIDVEEVKNKSCLTFTDDGCGMTPHKLHRMLSFGFTDKVIKKSQCPIGVFGNGFKSGSMRLGKDALVFTKNGGTLTVGLLSQTYLECVQAQAVIVPIVPFNQQNKKMIITEDSLPSLEAILNYSIFNRENDLLAQFDAIPGKKGTRVLIWNIRRNKNGKSELDFDTDQYDILVSDFDTEEKMTGGVTSELPETEYSLRAFCGILYMKPRMKIFLRQKKVTTQMIAKSLANVEYDTYKPTFTNKQVRITFGFSCKNSNQFGIMMYHNNRLIKSFEKVGCQVKPTRGEGVGVIGVIECNFLKPAYNKQDFEYTKEYRLTINALAQKLNAYWKEKTSQDNFETSTVARPIPKVPDQTWVQCDECLKWRKLPGKIDPSMLPARWFCYYNSHPKYRRCSVPEEQELTDEDLCLSKAKKQEQTVEEKKKMPMENENHQVFSNPPKILTVQEMAGLNNKTIGYEGIHSPSVLPSGGEESRSPSLQLKPLDSSVLQFSSKYKWILGEEPVEKRRRLQNEMTTPSLDYSMPAPYRRVEAPVAYPEGENSHDKSSSERSTPPYLFPEYPEASKNTGQNREVSILYPGAKDQRQGSLLPEELEDQMPRLVAEESNRGSTTINKEEVNKGPFVAVVGVAKGVRDSGAPIQLIPFNREELAERRKAVESWNPVPYSVASAAIPAAAIGEKARGYEESEGHNTPKLKNQRELEELKRTTEKLERVLAERNLFQQKVEELEQERNHWQSEFKKVQHELVIYSTQEAEGLYWSKKHMGYRQAEFQILKAELERTKEEKQELKEKLKETETHLEMLQKAQVSYRTPEGDDLERALAKLTRLRIHVSYLLTSVLPHLELREIGYDSEQVDGILYTVLEANHILD
B4: MLXIP (protein, UniProt Q9HAP2 2-919, looked up)
MLX-interacting protein: AADVFMCSPRRPRSRGRQVLLKPQVSEDDDDSDTDEPSPPPASGAATPARAHASAAPPPPRAGPGREEPPRRQQIIHSGHFMVSSPHREHPPKKGYDFDTVNKQTCQTYSFGKTSSCHLSIDASLTKLFECMTLAYSGKLVSPKWKNFKGLKLQWRDKIRLNNAIWRAWYMQYLEKRKNPVCHFVTPLDGSVDVDEHRRPEAITTEGKYWKSRIEIVIREYHKWRTYFKKRLQQHKDEDLSSLVQDDDMLYWHKHGDGWKTPVPMEEDPLLDTDMLMSEFSDTLFSTLSSHQPVAWPNPREIAHLGNADMIQPGLIPLQPNLDFMDTFEPFQDLFSSSRSIFGSMLPASASAPVPDPNNPPAQESILPTTALPTVSLPDSLIAPPTAPSLAHMDEQGCEHTSRTEDPFIQPTDFGPSEPPLSVPQPFLPVFTMPLLSPSPAPPPISPVLPLVPPPATALNPPAPPTFHQPQKFAGVNKAPSVITHTASATLTHDAPATTFSQSQGLVITTHHPAPSAAPCGLALSPVTRPPQPRLTFVHPKPVSLTGGRPKQPHKIVPAPKPEPVSLVLKNARIAPAAFSGQPQAVIMTSGPLKREGMLASTVSQSNVVIAPAAIARAPGVPEFHSSILVTDLGHGTSSPPAPVSRLFPSTAQDPLGKGEQVPLHGGSPQVTVTGPSRDCPNSGQASPCASEQSPSPQSPQNNCSGKSDPKNVAALKNRQMKHISAEQKRRFNIKMCFDMLNSLISNNSKLTSHAITLQKTVEYITKLQQERGQMQEEARRLREEIEELNATIISCQQLLPATGVPVTRRQFDHMKDMFDEYVKTRTLQNWKFWIFSIIIKPLFESFKGMVSTSSLEELHRTALSWLDQHCSLPILRPMVLSTLRQLSTSTSILTDPAQLPEQASKAVTRIGKRLGES
B5: NEFM (protein, UniProt P07197 2-916, looked up)
Neurofilament medium …: SYTLDSLGNPSAYRRVTETRSSFSRVSGSPSSGFRSQSWSRGSPSTVSSSYKRSMLAPRLAYSSAMLSSAESSLDFSQSSSLLNGGSGPGGDYKLSRSNEKEQLQGLNDRFAGYIEKVHYLEQQNKEIEAEIQALRQKQASHAQLGDAYDQEIRELRATLEMVNHEKAQVQLDSDHLEEDIHRLKERFEEEARLRDDTEAAIRALRKDIEEASLVKVELDKKVQSLQDEVAFLRSNHEEEVADLLAQIQASHITVERKDYLKTDISTALKEIRSQLESHSDQNMHQAEEWFKCRYAKLTEAAEQNKEAIRSAKEEIAEYRRQLQSKSIELESVRGTKESLERQLSDIEERHNHDLSSYQDTIQQLENELRGTKWEMARHLREYQDLLNVKMALDIEIAAYRKLLEGEETRFSTFAGSITGPLYTHRPPITISSKIQKPKVEAPKLKVQHKFVEEIIEETKVEDEKSEMEEALTAITEELAVSMKEEKKEAAEEKEEEPEAEEEEVAAKKSPVKATAPEVKEEEGEKEEEEGQEEEEEEDEGAKSDQAEEGGSEKEGSSEKEEGEQEEGETEAEAEGEEAEAKEEKKVEEKSEEVATKEELVADAKVEKPEKAKSPVPKSPVEEKGKSPVPKSPVEEKGKSPVPKSPVEEKGKSPVPKSPVEEKGKSPVSKSPVEEKAKSPVPKSPVEEAKSKAEVGKGEQKEEEEKEVKEAPKEEKVEKKEEKPKDVPEKKKAESPVKEEAVAEVVTITKSVKVHLEKETKEEGKPLQQEKEKEKAGGEGGSEEEGSDKGAKGSRKEDIAVNGEVEGKEEVEQETKEKGSGREEEKGVVTNGLDLSPADEKKGGDKSEEKVVVTKTVEKITSEGGDGATKYITKSVTVTQKVEEHEETFEEKLVSTKKVEKVTSHAIVKEVTQSD

Key:
HCV proteins = target: T1, HCV proteins (Hepatitis C virus genotype 1b, UniProt Q9WMX2); test: Validation by Y2H pairwise matrices; assay type: binding;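 further: yeast two-hybrid pairwise tests of interactions first found in Y2H screens of HCV bait proteins against human cDNA libraries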
T1 construct: expressed in transfected cells

[1] = test system: HCV ORFs (Gal4-DB fusions); assay type: binding, HCV genotype 1b, isolate con1; details: human protein listed by gene symbol; the value names the HCV protein it interacts with
[2] = target: T2, HCV ORFs (Gal4-DB fusions) (Hepatitis C virus genotype 1b, UniProt Q9WMX2); assay type: binding, HCV genotype 1b, isolate con1; details: human protein as prey
T2 construct: expressed in transfected cells; host or cells: Saccharomyces cerevisiae MAV203 (IMAP1) / AH109 (IMAP2)

[3] = validation of interaction with HCV protein NS3
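Wherever IMAP Y2H IMAP1 (number of IST) is given: yeast two-hybrid screens using HCV genotype 1b proteins fused to Gal4-DB as baits against prey cDNA libraries from human spleen and foetal brain, IMAP1 via transformation and IMAP2 via mating.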
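Wherever IMAP Y2H IMAP2 (number of IST) is given: yeast two-hybrid screens using HCV genotype 1b proteins fused to Gal4-DB as baits against prey cDNA libraries from human spleen and foetal brain, IMAP1 via transformation and IMAP2 via mating.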
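Wherever Interaction with viral protein is given: yeast two-hybrid screens using HCV genotype 1b proteins fused to Gal4-DB as baits against prey cDNA libraries from human spleen and foetal brain, IMAP1 via transformation and IMAP2 via mating.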

Row | Molecule | Y2H matrices (HCV proteins; [3]) | Interaction with viral protein [1] | IMAP Y2H IMAP1 (number of IST) ([2]; HCV protein NS3 as bait) | Y2H matrices (HCV proteins; interaction with HCV protein NS5A) | IMAP Y2H IMAP2 (number of IST) ([2]; HCV protein NS3 as bait) | IMAP Y2H IMAP1 (number of IST) ([2]; HCV protein NS5A as bait) | IMAP Y2H IMAP2 (number of IST) ([2]; HCV protein NS5A as bait)
1 | B1 | + | NS3 | 1 | – | – | – | –
2 | B2 | – | NS3 and NS5A | – | + | 1 | 1 | 31
3 | B3 | + | NS3 | 1 | – | – | – | –
4 | B4 | + | NS3 | 1 | – | – | – | –
5 | B5 | + | NS3 | 1 | – | – | – | –

Reference: patent publication US20110091994A1, “Methods for Screening Compounds for Treating and/or Preventing an Hepatitis C Virus Infection” (priority 2008, published 2011)
